Each block holds one binder with its values, some of them ahead of it.
Key:
Assay in all cases: holdup assay
Set-up in all cases: key: below the threshold = too weak to quantify, mostly under pKd 3.1 to 4
Details in all cases: plain residues with an end cap or a label only (N-terminal biotin on a linker: ado-ado)
[1] = biological target: T1, CARD11, Q9BXL7
T1 sequence (Q9BXL7 662-765, limits assumed, looked up): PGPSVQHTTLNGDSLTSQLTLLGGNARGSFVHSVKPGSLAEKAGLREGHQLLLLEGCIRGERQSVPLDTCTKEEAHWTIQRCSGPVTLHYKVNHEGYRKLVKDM

[2] = biological target: DLG1_2, Q12959
[3] = biological target: DLG4_2, P78352
[4] = biological target: DLG4_3, P78352
[5] = biological target: T2, FRMPD1, Q5SYB0
T2 sequence (Q5SYB0 52-145, limits assumed, looked up): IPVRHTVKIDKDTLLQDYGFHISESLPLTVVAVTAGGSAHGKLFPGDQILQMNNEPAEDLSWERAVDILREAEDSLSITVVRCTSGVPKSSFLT

[6] = biological target: FRMPD2_2, Q68DX3
[7] = biological target: GRASP, Q7Z6J2
[8] = biological target: GRIP2_3, Q9C0E4
[9] = biological target: HTRA1, Q92743
[10] = biological target: T3, HTRA4, P83105
T3 sequence (P83105 378-476, limits assumed, looked up): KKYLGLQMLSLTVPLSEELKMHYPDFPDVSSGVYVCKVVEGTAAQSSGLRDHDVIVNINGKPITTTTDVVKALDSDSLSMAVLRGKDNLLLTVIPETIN

[11] = biological target: Inadl_1, Q8NI35
[12] = biological target: Inadl_5, Q8NI35
[13] = biological target: LAP2, Q96RT1
[14] = biological target: T4, LRRC7, Q96NW7
T4 sequence (Q96NW7 1440-1537, limits assumed, looked up): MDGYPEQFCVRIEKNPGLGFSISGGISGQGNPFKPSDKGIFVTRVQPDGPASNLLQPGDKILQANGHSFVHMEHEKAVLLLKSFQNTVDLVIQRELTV

[15] = biological target: MAGI3_2, Q5TCQ9
[16] = biological target: T5, MPDZ_5, O75970
T5 sequence (O75970 695-796, limits assumed, looked up): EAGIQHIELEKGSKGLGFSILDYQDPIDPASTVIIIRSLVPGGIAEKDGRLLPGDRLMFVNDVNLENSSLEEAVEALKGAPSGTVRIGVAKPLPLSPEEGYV

[17] = biological target: T6, MPP2, Q14168
T6 sequence (Q14168 180-250, limits assumed, looked up): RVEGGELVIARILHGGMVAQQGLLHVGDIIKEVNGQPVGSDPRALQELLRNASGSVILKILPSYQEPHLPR

[18] = biological target: NHERF2_2, Q15599
[19] = biological target: T7, NHERF3_4, Q5T2W1
T7 sequence (Q5T2W1 373-468, limits assumed, looked up): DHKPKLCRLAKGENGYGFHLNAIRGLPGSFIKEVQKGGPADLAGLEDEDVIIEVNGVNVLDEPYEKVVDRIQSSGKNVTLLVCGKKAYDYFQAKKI

[20] = biological target: NHERF4_1, Q86UT5-2
[21] = biological target: PICK1, Q9NRD5
[22] = biological target: T8, PTPN13_1, Q12923
T8 sequence (Q12923 1088-1188, limits assumed, looked up): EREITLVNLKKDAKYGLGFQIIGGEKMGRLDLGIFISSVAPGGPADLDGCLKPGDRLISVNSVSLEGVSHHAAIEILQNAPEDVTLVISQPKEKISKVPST

[23] = biological target: T9, SIPA1L2, Q9P2F8
T9 sequence (Q9P2F8 945-1036, limits assumed, looked up): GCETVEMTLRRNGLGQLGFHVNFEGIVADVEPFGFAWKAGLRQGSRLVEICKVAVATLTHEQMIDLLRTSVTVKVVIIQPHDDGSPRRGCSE

[24] = biological target: T10, SNTB1, Q13884
T10 sequence (Q13884 107-205, limits assumed, looked up): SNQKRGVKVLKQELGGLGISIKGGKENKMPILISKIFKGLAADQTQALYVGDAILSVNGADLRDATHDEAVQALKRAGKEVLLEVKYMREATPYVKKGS

[25] = biological target: T11, SNTG2, Q9NY99
T11 sequence (Q9NY99 68-166, limits assumed, looked up): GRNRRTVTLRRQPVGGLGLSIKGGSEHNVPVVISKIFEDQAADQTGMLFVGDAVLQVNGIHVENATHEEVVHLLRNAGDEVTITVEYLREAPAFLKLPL

[26] = biological target: TJP1_3, Q07157
TJP1_3, Q07157, sequence (Q07157 416-512): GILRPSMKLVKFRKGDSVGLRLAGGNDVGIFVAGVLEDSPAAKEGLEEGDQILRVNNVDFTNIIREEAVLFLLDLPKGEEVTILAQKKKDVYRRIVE

Inadl_1, Q8NI35, sequence (Q8NI35 113-229): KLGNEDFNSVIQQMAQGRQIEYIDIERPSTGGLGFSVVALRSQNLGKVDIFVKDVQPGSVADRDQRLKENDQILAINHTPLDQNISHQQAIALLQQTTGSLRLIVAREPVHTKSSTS
Inadl_5, Q8NI35, sequence (Q8NI35 673-780): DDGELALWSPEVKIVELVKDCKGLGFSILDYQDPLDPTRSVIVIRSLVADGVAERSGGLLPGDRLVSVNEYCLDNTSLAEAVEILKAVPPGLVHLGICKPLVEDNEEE
DLG4_3, P78352, sequence (P78352 306-403): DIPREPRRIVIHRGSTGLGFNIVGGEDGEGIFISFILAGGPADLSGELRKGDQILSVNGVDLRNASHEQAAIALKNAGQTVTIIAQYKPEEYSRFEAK
MAGI3_2, Q5TCQ9, sequence (Q5TCQ9 398-503): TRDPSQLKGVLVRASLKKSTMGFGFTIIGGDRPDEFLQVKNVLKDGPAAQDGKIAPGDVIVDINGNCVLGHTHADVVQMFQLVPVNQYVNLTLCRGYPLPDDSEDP
LAP2, Q96RT1, sequence (Q96RT1 other isoform, or with tags, fused parts or gaps): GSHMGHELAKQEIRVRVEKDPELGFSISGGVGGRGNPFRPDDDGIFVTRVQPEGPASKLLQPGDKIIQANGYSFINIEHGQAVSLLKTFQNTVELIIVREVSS
GRIP2_3, Q9C0E4, sequence (Q9C0E4 238-339): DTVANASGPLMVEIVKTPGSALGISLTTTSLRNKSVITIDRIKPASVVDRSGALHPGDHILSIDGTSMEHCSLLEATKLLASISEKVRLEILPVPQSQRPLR
NHERF4_1, Q86UT5-2, sequence (Q86UT5 other isoform, or with tags, fused parts or gaps): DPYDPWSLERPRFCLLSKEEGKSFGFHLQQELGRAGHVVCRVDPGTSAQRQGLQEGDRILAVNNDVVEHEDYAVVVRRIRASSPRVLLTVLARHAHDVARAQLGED
HTRA1, Q92743, sequence (Q92743 360-477): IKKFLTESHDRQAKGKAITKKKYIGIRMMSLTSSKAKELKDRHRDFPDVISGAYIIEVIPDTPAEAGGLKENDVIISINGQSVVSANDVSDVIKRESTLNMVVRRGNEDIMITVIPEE
NHERF2_2, Q15599, sequence (Q15599 142-238): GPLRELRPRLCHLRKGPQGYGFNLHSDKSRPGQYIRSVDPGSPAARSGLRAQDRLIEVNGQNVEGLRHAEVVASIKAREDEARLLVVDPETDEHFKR
FRMPD2_2, Q68DX3, sequence (Q68DX3 944-1038): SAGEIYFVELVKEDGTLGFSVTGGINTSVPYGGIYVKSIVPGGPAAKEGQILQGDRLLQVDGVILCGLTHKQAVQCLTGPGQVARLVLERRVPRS
PICK1, Q9NRD5, sequence (Q9NRD5 17-115): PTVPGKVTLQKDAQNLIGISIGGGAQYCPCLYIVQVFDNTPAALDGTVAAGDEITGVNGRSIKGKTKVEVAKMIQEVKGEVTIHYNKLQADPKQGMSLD
DLG4_2, P78352, sequence (P78352 155-259): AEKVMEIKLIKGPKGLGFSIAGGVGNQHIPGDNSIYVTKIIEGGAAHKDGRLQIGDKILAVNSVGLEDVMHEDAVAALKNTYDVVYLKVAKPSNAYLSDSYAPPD
GRASP, Q7Z6J2, sequence (Q7Z6J2 96-193): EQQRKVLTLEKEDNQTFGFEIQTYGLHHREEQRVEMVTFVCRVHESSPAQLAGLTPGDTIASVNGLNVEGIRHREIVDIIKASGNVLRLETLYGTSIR
DLG1_2, Q12959, sequence (Q12959 314-412): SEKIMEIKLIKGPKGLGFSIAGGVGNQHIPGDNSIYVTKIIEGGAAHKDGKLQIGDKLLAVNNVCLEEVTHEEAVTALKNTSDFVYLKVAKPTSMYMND

pKd [1]: below the threshold | pKd [2]: 5.33 | pKd [3]: 5.08 | pKd [4]: 4.61 | pKd [5]: below the threshold | pKd [6]: 3.57 | pKd [7]: below the threshold | pKd [8]: below the threshold | pKd [9]: 4.26 | pKd [10]: 3.92 | pKd [11]: below the threshold | pKd [12]: below the threshold | pKd [13]: 3.84 | pKd [14]: below the threshold | pKd [15]: 5.29 | pKd [16]: below the threshold | pKd [17]: below the threshold | pKd [18]: below the threshold | pKd [19]: below the threshold | pKd [20]: below the threshold | pKd [21]: below the threshold | pKd [22]: below the threshold | pKd [23]: below the threshold | pKd [24]: 4.67 | pKd [25]: 4.26 | pKd [26]: below the threshold
B2: ADGRA1, Q86SQ6 (peptide)
chain: TGPWKNETTV

pKd [1]: 3.54 | pKd [2]: 4.3 | pKd [3]: 3.95 | pKd [4]: 4.17 | pKd [5]: below the threshold | pKd [6]: below the threshold | pKd [7]: 5.1 | pKd [8]: below the threshold | pKd [9]: 5.48 | pKd [10]: 4.76 | pKd [11]: below the threshold | pKd [12]: below the threshold | pKd [13]: 3.79 | pKd [14]: 3.97 | pKd [15]: 4.87 | pKd [16]: below the threshold | pKd [17]: 4.01 | pKd [18]: 4.52 | pKd [19]: 5.36 | pKd [20]: 4.56 | pKd [21]: below the threshold | pKd [22]: below the threshold | pKd [23]: 4.01 | pKd [24]: 4.43 | pKd [25]: 4.35 | pKd [26]: below the threshold
B5: GNG4, P50150 (peptide)
chain: REKKFFCTIL

pKd [1]: below the threshold | pKd [2]: 3.5 | pKd [3]: 3.76 | pKd [4]: below the threshold | pKd [5]: below the threshold | pKd [6]: below the threshold | pKd [7]: 4.12 | pKd [8]: below the threshold | pKd [9]: 3.69 | pKd [10]: below the threshold | pKd [11]: below the threshold | pKd [12]: below the threshold | pKd [13]: below the threshold | pKd [14]: below the threshold | pKd [15]: below the threshold | pKd [16]: below the threshold | pKd [17]: below the threshold | pKd [18]: below the threshold | pKd [19]: below the threshold | pKd [20]: 3.88 | pKd [21]: below the threshold | pKd [22]: below the threshold | pKd [23]: below the threshold | pKd [24]: below the threshold | pKd [25]: below the threshold | pKd [26]: below the threshold
B6: IGF1R, P08069 (peptide)
chain: ALPLPQSSTC

The next lines start with the binder.

B1: TNRC6A, Q8NDV7 (peptide)
chain: DHLGGGGESM
pKd [1]: below the threshold | pKd [2]: below the threshold | pKd [3]: below the threshold | pKd [4]: below the threshold | pKd [5]: below the threshold | pKd [6]: below the threshold | pKd [7]: below the threshold | pKd [8]: below the threshold | pKd [9]: below the threshold | pKd [10]: below the threshold | pKd [11]: below the threshold | pKd [12]: below the threshold | pKd [13]: 3.74 | pKd [14]: below the threshold | pKd [15]: below the threshold | pKd [16]: below the threshold | pKd [17]: below the threshold | pKd [18]: below the threshold | pKd [19]: below the threshold | pKd [20]: below the threshold | pKd [21]: below the threshold | pKd [22]: below the threshold | pKd [23]: below the threshold | pKd [24]: below the threshold | pKd [25]: below the threshold | pKd [26]: below the threshold

B3: GOLT1A, Q6ZVE7 (peptide)
chain: RRLQGTSSMV
pKd [1]: below the threshold | pKd [2]: 4.71 | pKd [3]: 4.71 | pKd [4]: below the threshold | pKd [5]: below the threshold | pKd [6]: below the threshold | pKd [7]: 3.89 | pKd [8]: below the threshold | pKd [9]: 4 | pKd [10]: below the threshold | pKd [11]: below the threshold | pKd [12]: below the threshold | pKd [13]: below the threshold | pKd [14]: below the threshold | pKd [15]: 5.02 | pKd [16]: below the threshold | pKd [17]: below the threshold | pKd [18]: below the threshold | pKd [19]: below the threshold | pKd [20]: below the threshold | pKd [21]: 4.03 | pKd [22]: below the threshold | pKd [23]: below the threshold | pKd [24]: below the threshold | pKd [25]: below the threshold | pKd [26]: below the threshold

B4: PLCB1, Q9NQ66 (peptide)
chain: IPGKEFDTPL
pKd [1]: below the threshold | pKd [2]: 3.57 | pKd [3]: below the threshold | pKd [4]: below the threshold | pKd [5]: below the threshold | pKd [6]: below the threshold | pKd [7]: below the threshold | pKd [8]: below the threshold | pKd [9]: below the threshold | pKd [10]: below the threshold | pKd [11]: below the threshold | pKd [12]: below the threshold | pKd [13]: 3.58 | pKd [14]: below the threshold | pKd [15]: below the threshold | pKd [16]: below the threshold | pKd [17]: below the threshold | pKd [18]: 5.1 | pKd [19]: 4.31 | pKd [20]: 3.56 | pKd [21]: below the threshold | pKd [22]: below the threshold | pKd [23]: below the threshold | pKd [24]: 3.96 | pKd [25]: below the threshold | pKd [26]: below the threshold

— paper PMC9482650, “Quantitative fragmentomics allow affinity mapping of interactomes” (Nature Communications, 2022)
